For two molecules, IC50 results are on record in paper PMC8976148 (2022).

The assay concerns the target T1, Biotinylated N-Avitagged-TEAD4^217-434 (UniProt Q15561 217-434, biotin (biotinylated Avitag)).
T1 chain: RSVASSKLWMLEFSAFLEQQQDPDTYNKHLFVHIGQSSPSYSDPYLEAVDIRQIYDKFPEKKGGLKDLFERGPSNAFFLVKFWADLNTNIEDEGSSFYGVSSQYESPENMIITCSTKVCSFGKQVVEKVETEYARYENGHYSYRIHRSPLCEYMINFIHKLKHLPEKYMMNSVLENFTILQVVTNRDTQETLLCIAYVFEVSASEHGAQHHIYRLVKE
Description: FRET.

B1: YAP^50-171 (domain or fragment)
chain: AGHQIVHVRGDSETDLEALFNAVMNPKTANVPQTVPMRLRKLPDSFFKPPEPKSHSRQASTDAGTAGALTPQHVRAHSSPASLQLGAVSPGTLTPTGVVSGPAATPTAQHLRQSSFEIPDDV
With B1, 11 nM corresponded to half-maximal inhibition (IC50).

B2: YAP^50-171 with a cysteine inserted at position 172 (domain or fragment)
chain: AGHQIVHVRGDSETDLEALFNAVMNPKTANVPQTVPMRLRKLPDSFFKPPEPKSHSRQASTDAGTAGALTPQHVRAHSSPASLQLGAVSPGTLTPTGVVSGPAATPTAQHLRQSSFEIPDDVC
Consider B2, for which the midpoint of inhibition, the IC50, lay at 7 nM.

The term IC50 denotes the midpoint of a concentration-inhibition curve.
